B1: 4A8 (human monoclonal antibody) (antibody, V domains shown)
VH: EVQLVESGAEVKKPGASVKVSCKVSGYTLTELSMHWVRQAPGKGLEWMGGFDPEDGETMYAQKFQGRVTMTEDTSTDTAYMELSSLRSEDTAVYYCATSTAVAGTPDLFDYYYGMDVWGQGTTVTVSS
VL: EIVMTQSPLSSPVTLGQPASISCRSSQSLVHSDGNTYLSWLQQRPGQPPRLLIYKISNRFSGVPDRFSGSGAGTDFTLKISRVEAEDVGVYYCTQATQFPYTFGQGTKVDIK
B2: 2M-10B11 (human monoclonal antibody) (antibody, V domains shown)
VH: EVQLVESGGGLVQPGGSLRLSCAASGFTVSSNYMSWVRQAPGKGLEWVSVIYSGGSTYYADSVKGRFTISRDNSKNTLYLQMNSLRAEDTAVYYCARATWLRGVMDVWGQGTTVTVSS
VL: QSALTQPHSVSESPGKTVTISCTGSSGSIASNYVQWYQQRPGSAPTTVIYEDNQRPSGVPDRFSGSIDSSSNSASLTISGLKTEDEADYYCQSYDSSNHWVFGGGTKLTVL

Molecular target: SARS-CoV-2 Spike protein extracellular domain (S-ECD), as used in ELISA and BLI (SARS-CoV-2, UniProt P0DTC2 14-1208)
Assay: BLI

Row | Binder | Kd [nM]
1 | B1 | 0.996
2 | B2 | 0.342

Reference: article PMC7319273 (2020)
